According to patent EP3263700A1:

Legend:
Experiment in all cases: cell-based or functional assay
[1] = target: purified coagulation factor IX (zymogen)
[2] = target: purified coagulation factor VII (zymogen)
[3] = target: purified human coagulation factor X (zymogen) (human) (UniProt P00742)
Chain of UniProt P00742 (P00742 41-179 limits assumed, chain 1 of 2): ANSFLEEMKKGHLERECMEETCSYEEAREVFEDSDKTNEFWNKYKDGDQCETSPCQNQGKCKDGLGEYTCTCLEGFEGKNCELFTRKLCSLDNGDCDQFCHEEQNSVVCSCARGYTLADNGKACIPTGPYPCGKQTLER
Chain of UniProt P00742 (P00742 183-488 limits assumed, chain 2 of 2): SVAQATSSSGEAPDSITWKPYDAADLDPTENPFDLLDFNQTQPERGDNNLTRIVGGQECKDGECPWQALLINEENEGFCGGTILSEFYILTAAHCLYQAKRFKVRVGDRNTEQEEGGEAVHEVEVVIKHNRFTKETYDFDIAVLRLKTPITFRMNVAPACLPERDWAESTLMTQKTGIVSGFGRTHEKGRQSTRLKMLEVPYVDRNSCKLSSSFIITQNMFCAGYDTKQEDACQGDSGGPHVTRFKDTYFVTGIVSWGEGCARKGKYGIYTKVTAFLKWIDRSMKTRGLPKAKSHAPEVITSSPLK

C. canimorsus DPP7 (Capnocytophaga canimorsus 5 dipeptidyl peptidase 7) with a C-terminal Strep-His tag (enzyme)
aPTT in factor deficient plasma [1]: 2 fold
PT (prothrombin time) in factor deficient plasma [2]: 30%
PT (prothrombin time) in factor deficient plasma [3]: 10 fold
